Data as given in patent publication US20170112792A1, “ENHANCED ATRA-RELATED COMPOUNDS DERIVED FROM STRUCTURE-ACTIVITY RELATIONSHIPS AND MODELING FOR INHIBITING PIN1” (Beth Israel Deaconess Medical Center, Inc., priority 2014, published 2017).

Target: pSer110 peptide (IRAKM residues 103-124 with Ser110 phosphorylated)
Assay: NMR titration, 1H-15N HSQC chemical shift changes

Sequence of pSer110 peptide (IRAKM residues 103-124 with Ser110 phosphorylated) (peptide, as listed by the source limits assumed): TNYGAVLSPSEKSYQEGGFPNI

“15N-labeled Pin1 WW domain (Pin1 residues 1-50) (from UniProt Q13526 1-50)” gave a Kd of 60.7 µM.
